Each block holds one binder with its values, some of them ahead of it.
Key:
[1] = biological target: T1, Cdc42Δ7Q61L (human, UniProt P60953 1-184, Q61L); test: direct SPA, GTP-bound Cdc42
[2] = biological target: T1, Cdc42Δ7Q61L; test: competition SPA vs GST-WASP GBD
Target sequence in this assay (P60953 1-184 Q61L): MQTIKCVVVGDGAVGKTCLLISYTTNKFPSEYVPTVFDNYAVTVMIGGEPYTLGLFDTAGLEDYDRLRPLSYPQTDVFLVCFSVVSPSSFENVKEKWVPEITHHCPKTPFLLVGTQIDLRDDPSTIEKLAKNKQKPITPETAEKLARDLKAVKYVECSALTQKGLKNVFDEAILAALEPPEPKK

[3] = biological target: T1, Cdc42Δ7Q61L; test: direct SPA, GTP-bound Cdc42; remark: listed apart in the source

B1: His-SNAP-TOCA1 (full-length X. tropicalis TOCA1) (natural protein)
chain: MSWGTELWDQFDNLEKHTQWGIDFLDKYAKFVKERLEIEQNYAKQLRNLVKKYCPKRSAKDEEPRFTSCLSFYNILNELNDYAGQREVVAEEMGHRVYAEIMRYSNDIKGERKSHLQEGRKAQQYLDMCLKQMDNSKRKFERECREAEKAQQTYERLDNDSNATKSDVEKAKQQLHLRTHMADESKNEYAAQLQNYNAEQHKHFYIVIPQVYKHLQEMDERRTVKLSECYKGFADAERKVIPIISKCLEGMVQAAKSVDERRDSQIVVDCFKSGFEPNGDYPFEDYSQHIYRTVSDGTISTPKQESLKPDPRVTVGKAKGKLWLFGKKPKGPALEDFSHLPPEQRRKRLQQRIDELSRELQKEMDQKDALNKMKDVYEKNPQMGDPSSLHPKIAETTSNIERLRMEIHKNEAWLSEVEGKVSQRSERRHSAEANHLVAQGRESPEGSYTEDANQEGRVQPQPHAHPEFDDEFDDDEPLPAIGHCKSLYPFDGNNEGTLAMKEGEVLYIIEEDKGDGWTRARKQNGEEGYVPTSYIDITLEKNSKGAVTYI
- Kd [1]: > 1000 nM

B2: GST-ACK GBD (domain or fragment)
chain: GLSAQDISQPLQNSFIHTGHGDSDPRHCWGFPDRIDELYLGN
- Kd [1]: 46 nM

B4: GST-PAK (domain or fragment)
chain: ISLPSDFEHTIHVGFDAVTGEFTGMPEQWARLLQTSNITKSEQK
- Kd [3]: 60 nM

Further lines, results first:

- Kd [2]: 16 nM
B3: N-WASP G protein-binding domain (GBD) (residues 197–255) (domain or fragment)
chain: KKKLTKADIGTPSNFQHIGHVGWDPNTGFDVNNLDPELKKLFDLCGISEAQLKDKETSK

- Kd [1]: > 1000 nM
B5: His-SNAP-TOCA1 ΔSH3 (residues 1–480) (domain or fragment)
chain: MSWGTELWDQFDNLEKHTQWGIDFLDKYAKFVKERLEIEQNYAKQLRNLVKKYCPKRSAKDEEPRFTSCLSFYNILNELNDYAGQREVVAEEMGHRVYAEIMRYSNDIKGERKSHLQEGRKAQQYLDMCLKQMDNSKRKFERECREAEKAQQTYERLDNDSNATKSDVEKAKQQLHLRTHMADESKNEYAAQLQNYNAEQHKHFYIVIPQVYKHLQEMDERRTVKLSECYKGFADAERKVIPIISKCLEGMVQAAKSVDERRDSQIVVDCFKSGFEPNGDYPFEDYSQHIYRTVSDGTISTPKQESLKPDPRVTVGKAKGKLWLFGKKPKGPALEDFSHLPPEQRRKRLQQRIDELSRELQKEMDQKDALNKMKDVYEKNPQMGDPSSLHPKIAETTSNIERLRMEIHKNEAWLSEVEGKVSQRSERRHSAEANHLVAQGRESPEGSYTEDANQEGRVQPQPHAHPEFDDEFDDDEPLPA

— article PMC4919469 (2016)
